Source: publication PMC9555795, “Divergent kinase WNG1 is regulated by phosphorylation of an atypical activation sub-domain” (Biochemical Journal, 2022)

Target: the molecule itself
Test: SAXS; protein diluted from a 305 uM stock in 20 mM HEPES pH 7.5, 100 mM NaCl; DAMMIN envelope, SASREF P2 tetramer model compared with the crystal hexamer

B1: BPK1 (residues 61-377) (domain or fragment)
chain: SVYRIPLADMTFWSWMSYLKELPDIDESRNPILKRLLSGSFLRRDGSTTVNVRVPARELVRLLSLTPEQQREGVSAKVRLINLLDPKYSVYEPYLYREILPKRSPLLLPSLGEYRGAFLTYIFHPLSKGLVGDMLETGRSHPDVQVLAANMVAALKSLHNLGLLHRSIELNSFSVLPDGTVVLGGLDTAAPIGTETRLWVGFFGQETAPEIDRNFLADLALTQGRHTVKSDVYSLGVAFRNLVQLLGNGNIGPEDRGAVRQDHLELLDKLSQKMIEEEPGNRPTIEEIMKDPLFEGLNFEDIEEGKARPFRYKQNRL
notes: BPK1, pseudokinase of the WNG family, Toxoplasma gondii, residues 61-377; Cloned in pET28a with the SUMO tag; Purified on Ni-NTA as for WNG1, so a His tag probably went off with the SUMO tag; The species is stated for the WNG family in general, not for BPK1 by name; also called WNG family pseudokinase; source: Rosetta 2 (DE3) cells, purified (Ni-NTA, ULP1 digestion, anion exchange, SEC)
stoichiometry N: 4
